# PMC7738311
# Molecular target: His-tagged MafAI (MafAI.1 of N. meningitidis BB-1, from plasmid pEN-mafAI-H) (Neisseria meningitidis strain BB-1)
# Experiment: semi-native SDS-PAGE with Western blot (heat modifiability); cell envelopes of BB-1, samples heated at 95°C or not before electrophoresis; sample buffer with 0.2% SDS and no β-mercaptoethanol, run on ice; detected with anti-His-tag antibodies (MafAI) or anti-MafAII antiserum
substance,measurement,value
"His-tagged MafAI (MafAI.1 of N. meningitidis BB-1, from plasmid pEN-mafAI-H) (natural protein)",stoichiometry N,8 subunits
